T1: canine neonatal Fc receptor, C-terminus biotinylated, attached to Streptavidin (cFcRn-SmBiT) (canine, biotin at the C-terminus)
T1 chain 1: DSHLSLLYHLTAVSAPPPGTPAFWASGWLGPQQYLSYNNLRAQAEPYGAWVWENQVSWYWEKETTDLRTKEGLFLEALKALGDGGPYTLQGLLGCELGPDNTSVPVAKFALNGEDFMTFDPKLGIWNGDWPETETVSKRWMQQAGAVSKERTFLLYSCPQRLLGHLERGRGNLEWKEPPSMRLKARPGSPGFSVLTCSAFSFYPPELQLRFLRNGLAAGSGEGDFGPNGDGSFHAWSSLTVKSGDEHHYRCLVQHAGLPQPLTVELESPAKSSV
T1 chain 2: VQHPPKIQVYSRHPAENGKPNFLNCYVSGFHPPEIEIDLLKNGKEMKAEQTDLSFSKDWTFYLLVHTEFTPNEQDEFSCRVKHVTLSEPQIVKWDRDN

T2: recombinant canine Interleukin 31 produced in HEK cells (canine)
T2 construct: canine Interleukin 31 (IL-31); also called rcIL-31 (HEK); cIL-31 (HEK); source: produced in HEK cells
T2 chain: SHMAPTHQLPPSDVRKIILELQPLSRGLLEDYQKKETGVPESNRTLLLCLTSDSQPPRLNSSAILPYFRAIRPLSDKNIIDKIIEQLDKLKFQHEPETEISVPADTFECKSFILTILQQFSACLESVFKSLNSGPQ

T3: recombinant canine Interleukin 31 produced in HEK cells (canine)
T3 chain: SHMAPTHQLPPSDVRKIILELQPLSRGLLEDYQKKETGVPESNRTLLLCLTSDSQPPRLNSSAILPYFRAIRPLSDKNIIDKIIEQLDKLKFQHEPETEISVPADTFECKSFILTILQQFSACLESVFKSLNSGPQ


Legend:
[1] = target: canine neonatal Fc receptor, C-terminus biotinylated, attached to Streptavidin (cFcRn-SmBiT) (canine); assay: other; competition with IgG-LgBiT tracer
[2] = target: recombinant canine Interleukin 31 produced in Nicotiana benthamiana (canine); assay: SEC; elution volume on a calibrated Superdex 200 column; monomer to dimer
[3] = target: recombinant canine Interleukin 31 produced in Nicotiana benthamiana (canine); assay: dynamic light scattering; hydrodynamic radius of cIL-31 at pH 7.5; monomer to dimer
[4] = target: recombinant canine Interleukin 31 produced in HEK cells (canine); assay: as above
[5] = target: T1, canine neonatal Fc receptor, C-terminus …; assay: competition with IgG-LgBiT tracer
[6] = target: T2, recombinant canine Interleukin 31 …; assay: BLI; Lokivetmab or M1 (5 nM) immobilised on ProA biosensors to 1 nm; rcIL-31 (HEK) 300 to 80 nM in solution; 25 °C, PBS pH 7.4, 0.1% BSA, 0.02% Tween; association 360 s, dissociation 600 s; global fit, KD from kd/ka; conditions: both partners purified
[7] = target: T3, recombinant canine Interleukin 31 …; assay: BLI

IC50 [5]	Kd [6]	koff [7]	Molecule	further results
–	–	–	Lokivetmab	IC50 [1]: 68.7 µg/mL
–	–	–	recombinant canine Interleukin 31 produced in Nicotiana benthamiana (ligand)	stoichiometry N [2]: 2; stoichiometry N [3]: 2
–	–	–	recombinant canine Interleukin 31 produced in HEK cells (ligand)	stoichiometry N [4]: 2
17.9 µg/mL	–	–	plant-made anti-cIL-31 monoclonal antibody M1 produced in wild-type N. benthamiana (antibody) chain 1: EVQLVESGGDLVKPGGSLRLSCVASGFTFSNYGMSWVRQAPGKGLQWVATISYGGSYTYYPDNIKGRFTISRDNAKNTLYLQMNSLRAEDTAMYYCVRGYGYDTMDYWGQGTLVTVSS chain 2: EIVMTQSPASLSLSQEEKVTITCKASQSVSFAGTGLMHWYQQKPGQAPKLLIYRASNLEAGVPSRFSGSGSGTDFSFTISSLEPEDVAVYYCQQSREYPWTFGQGTKLEIK	–
21.6 µg/mL	28.5 nM	0.00345 s⁻¹	plant-made anti-cIL-31 monoclonal antibody M1 produced in FucT/XylT mutant (ΔXF) N. benthamiana (antibody, V domains shown, CAN-34D03-VH-568-1); CAN 34D03-VL998-1); LC constant domain kappa (XP_035562095.1); Full IgG; N-glycans lack core α(1,3)-fucose and β(1,2)-xylose; also called M1 ΔXF; plant-made Lokivetmab biosimilar; source: ΔXF N. benthamiana, transient expression, purified (Protein A: Hi Screen Fibro PrismA)) VH: EVQLVESGGDLVKPGGSLRLSCVASGFTFSNYGMSWVRQAPGKGLQWVATISYGGSYTYYPDNIKGRFTISRDNAKNTLYLQMNSLRAEDTAMYYCVRGYGYDTMDYWGQGTLVTVSS VL: EIVMTQSPASLSLSQEEKVTITCKASQSVSFAGTGLMHWYQQKPGQAPKLLIYRASNLEAGVPSRFSGSGSGTDFSFTISSLEPEDVAVYYCQQSREYPWTFGQGTKLEIK	–
–	27.4 nM	0.00205 s⁻¹	Lokivetmab (antibody, V domains shown, Caninized IgG; major N-glycoform GnGnF (79%); also called caninized monoclonal antibody targeting IL-31; commercial homolog of M1; source: produced in CHO cells; commercial product) VH: EVQLVESGGDLVKPGGSLRLSCVASGFTFSNYGMSWVRQAPGKGLQWVATISYGGSYTYYPDNIKGRFTISRDNAKNTLYLQMNSLRAEDTAMYYCVRGYGYDTMDYWGQGTLVTVSS VL: EIVMTQSPASLSLSQEEKVTITCKASQSVSFAGTGLMHWYQQKPGQAPKLLIYRASNLEAGVPSRFSGSGSGTDFSFTISSLEPEDVAVYYCQQSREYPWTFGQGTKLEIK	–

Reference: publication PMC11209382, “Exploring the Potentiality of a Plant Platform for Monoclonal Antibody Production in Veterinary Medicine” (Vaccines, 2024)
